The text below walks through data of CN116178550A (BEIJING DONGFANG BIOTECH CO LTD, dated 2023).

The target in experiment [1] is T1, LILRA3 (UniProt Q8N6C8 24-439). Briefly: ELISA, protein coated 100 ng/well, MF-I at 50 μg/mL. In general terms: ELISA stands for enzyme-linked immunosorbent assay.
The target of experiment [2] is T2, LILRA2 (UniProt Q8N149 24-449, limits assumed). The experiment is described as above.
Experiment [3] addresses T3, LILRB5 (UniProt O75023 24-458, limits assumed). Described as above.
Experiment [4] concerns the target T4, LILRA6 (UniProt Q6PI73 24-447, limits assumed). The description is as above.
Experiment [5] addresses T5, LILRA5 (UniProt A6NI73 42-268, limits assumed). Described as above.
Experiment [6] addresses T6, LILRB2 (UniProt Q8N423 22-460, limits assumed). The experiment is described as above.
In experiment [7] the target is T7, LILRA1 (UniProt O75019 17-461, limits assumed). The description is as above.
T7 sequence (O75019 17-461 limits assumed): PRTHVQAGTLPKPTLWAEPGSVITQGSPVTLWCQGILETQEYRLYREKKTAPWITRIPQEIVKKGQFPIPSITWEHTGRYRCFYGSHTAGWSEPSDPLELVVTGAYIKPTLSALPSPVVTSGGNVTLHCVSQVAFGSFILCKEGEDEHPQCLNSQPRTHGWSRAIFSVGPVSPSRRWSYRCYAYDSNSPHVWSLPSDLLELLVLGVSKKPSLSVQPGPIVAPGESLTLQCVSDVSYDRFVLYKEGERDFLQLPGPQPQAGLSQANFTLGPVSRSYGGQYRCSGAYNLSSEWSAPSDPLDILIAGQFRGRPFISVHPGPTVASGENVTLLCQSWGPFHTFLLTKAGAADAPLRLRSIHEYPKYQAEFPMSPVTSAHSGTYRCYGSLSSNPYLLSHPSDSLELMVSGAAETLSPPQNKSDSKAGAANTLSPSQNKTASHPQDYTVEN
The target in experiment [8] is T8, LILRB4抗原 (人LILRB4蛋白胞外段) (human, UniProt Q8NHJ6 22-259).
T8 construct: extracellular domain; also called 白细胞免疫球蛋白样受体亚家族B成员4
The description is as above.

In experiment [9] the target is T9, LILRB3 (UniProt O75022 24-443, limits assumed). The description is as above.
T9 sequence (O75022 24-443 limits assumed): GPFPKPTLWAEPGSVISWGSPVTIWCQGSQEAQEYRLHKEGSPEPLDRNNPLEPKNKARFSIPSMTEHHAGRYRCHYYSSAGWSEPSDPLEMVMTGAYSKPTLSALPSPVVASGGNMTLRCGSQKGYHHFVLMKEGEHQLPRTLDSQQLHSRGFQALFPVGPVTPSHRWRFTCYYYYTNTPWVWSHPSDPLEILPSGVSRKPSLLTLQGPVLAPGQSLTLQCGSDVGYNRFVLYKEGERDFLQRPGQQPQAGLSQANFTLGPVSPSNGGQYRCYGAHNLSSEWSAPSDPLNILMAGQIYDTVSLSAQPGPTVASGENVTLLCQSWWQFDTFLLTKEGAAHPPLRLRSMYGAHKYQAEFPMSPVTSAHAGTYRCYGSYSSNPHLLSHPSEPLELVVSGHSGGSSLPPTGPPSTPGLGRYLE
In experiment [10] the target is T10, LILRB1 (UniProt Q8NHL6 24-461, limits assumed). Described as above.
T10 sequence (Q8NHL6 24-461 limits assumed): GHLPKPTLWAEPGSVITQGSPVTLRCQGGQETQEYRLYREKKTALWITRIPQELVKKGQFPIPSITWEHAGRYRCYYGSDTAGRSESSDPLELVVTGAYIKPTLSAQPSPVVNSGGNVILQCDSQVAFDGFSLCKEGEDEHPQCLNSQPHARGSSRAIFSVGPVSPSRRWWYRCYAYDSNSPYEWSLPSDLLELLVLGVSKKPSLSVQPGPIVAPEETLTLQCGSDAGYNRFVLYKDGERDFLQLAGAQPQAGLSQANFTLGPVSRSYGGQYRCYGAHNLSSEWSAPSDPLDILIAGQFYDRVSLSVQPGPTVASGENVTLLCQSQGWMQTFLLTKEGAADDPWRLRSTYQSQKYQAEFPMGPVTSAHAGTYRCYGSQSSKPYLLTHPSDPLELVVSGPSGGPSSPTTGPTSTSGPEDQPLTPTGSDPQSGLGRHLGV
Experiment [11] has as its target T11, LILRA4 (UniProt P59901 24-446, limits assumed). The experiment is described as above.
Experiment [12] deals with T1, LILRA3. Briefly: ELISA, protein coated 100 ng/well, Goat Anti-Mouse IgG-HRP.
In experiment [13] the target is T2, LILRA2. The experiment is described as above.
In experiment [14] the target is T3, LILRB5. The description is as above.
For experiment [15], the target named is T4, LILRA6. The description is as above.
For experiment [16], the target named is T5, LILRA5. The description is as above.
Experiment [17] deals with T6, LILRB2. Described as above.
For experiment [18], the target named is T7, LILRA1. The description is as above.
In experiment [19] the target is T9, LILRB3. Described as above.
Experiment [20] has as its target T10, LILRB1. Described as above.
Experiment [21] addresses T11, LILRA4. Described as above.
Experiment [22] concerns the target T12, 人单核细胞白血病细胞(THP-1)表面LILRB4 (human, UniProt Q8NHJ6 22-448). Briefly: cell-based or functional assay.
Experiment [23] deals with T8, LILRB4抗原 (人LILRB4蛋白胞外段). The experiment in a line: ELISA, LILRB4 coated 100 ng/well, Goat Anti-Mouse IgG-HRP.
Experiment [24] addresses T12, 人单核细胞白血病细胞(THP-1)表面LILRB4. The experiment in a line: flow cytometry on THP-1 cells, competition with 0.4 μg/mL FITC-labelled ApoE.

T4 sequence (Q6PI73 24-447 limits assumed): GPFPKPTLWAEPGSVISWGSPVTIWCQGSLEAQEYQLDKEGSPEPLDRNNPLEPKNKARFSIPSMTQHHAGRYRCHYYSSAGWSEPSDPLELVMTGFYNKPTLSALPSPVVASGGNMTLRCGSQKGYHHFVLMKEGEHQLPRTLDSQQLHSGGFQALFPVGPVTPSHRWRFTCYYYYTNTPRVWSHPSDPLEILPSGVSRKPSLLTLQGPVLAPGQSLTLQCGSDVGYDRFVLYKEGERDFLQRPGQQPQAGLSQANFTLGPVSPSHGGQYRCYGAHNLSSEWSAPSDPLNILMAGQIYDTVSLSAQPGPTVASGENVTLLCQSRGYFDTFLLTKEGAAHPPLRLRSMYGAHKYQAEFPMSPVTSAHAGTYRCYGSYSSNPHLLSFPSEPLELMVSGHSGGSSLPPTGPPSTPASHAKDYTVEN
T2 sequence (Q8N149 24-449 limits assumed): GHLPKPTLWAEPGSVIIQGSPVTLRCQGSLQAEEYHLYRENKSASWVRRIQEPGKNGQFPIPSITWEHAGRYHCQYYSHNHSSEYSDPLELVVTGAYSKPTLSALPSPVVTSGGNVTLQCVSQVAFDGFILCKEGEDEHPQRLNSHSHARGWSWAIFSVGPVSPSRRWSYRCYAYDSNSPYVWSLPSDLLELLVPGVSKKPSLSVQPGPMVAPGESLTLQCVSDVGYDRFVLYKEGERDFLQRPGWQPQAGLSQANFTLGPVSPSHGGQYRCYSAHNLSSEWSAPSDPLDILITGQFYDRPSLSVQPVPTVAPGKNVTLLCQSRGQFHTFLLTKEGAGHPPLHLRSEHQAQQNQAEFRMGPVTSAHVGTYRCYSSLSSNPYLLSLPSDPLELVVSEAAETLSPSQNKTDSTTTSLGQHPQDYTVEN
T11 sequence (P59901 24-446 limits assumed): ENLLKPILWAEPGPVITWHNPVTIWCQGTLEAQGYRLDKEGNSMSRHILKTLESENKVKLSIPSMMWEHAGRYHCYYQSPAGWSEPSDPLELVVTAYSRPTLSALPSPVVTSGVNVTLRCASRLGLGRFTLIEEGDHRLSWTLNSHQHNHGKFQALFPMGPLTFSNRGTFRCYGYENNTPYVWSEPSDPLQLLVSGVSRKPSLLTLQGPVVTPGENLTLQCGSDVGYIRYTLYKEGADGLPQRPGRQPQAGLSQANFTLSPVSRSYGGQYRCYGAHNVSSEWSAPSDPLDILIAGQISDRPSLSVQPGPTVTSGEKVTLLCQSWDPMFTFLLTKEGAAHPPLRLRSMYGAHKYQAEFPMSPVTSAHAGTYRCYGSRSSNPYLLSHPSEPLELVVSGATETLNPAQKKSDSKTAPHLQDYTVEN
T3 sequence (O75023 24-458 limits assumed): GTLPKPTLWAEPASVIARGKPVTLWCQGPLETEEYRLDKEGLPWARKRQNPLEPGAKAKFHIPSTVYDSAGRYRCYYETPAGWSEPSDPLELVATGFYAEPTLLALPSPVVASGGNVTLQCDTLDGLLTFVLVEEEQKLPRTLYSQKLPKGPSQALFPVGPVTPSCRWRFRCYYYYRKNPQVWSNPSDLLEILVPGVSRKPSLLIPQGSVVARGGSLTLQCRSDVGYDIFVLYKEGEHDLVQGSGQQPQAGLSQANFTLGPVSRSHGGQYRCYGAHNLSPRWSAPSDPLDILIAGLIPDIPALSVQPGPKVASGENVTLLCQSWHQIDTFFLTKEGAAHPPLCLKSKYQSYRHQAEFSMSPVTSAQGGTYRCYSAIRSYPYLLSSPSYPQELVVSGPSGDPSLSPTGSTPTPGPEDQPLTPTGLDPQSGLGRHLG
T5 sequence (A6NI73 42-268 limits assumed): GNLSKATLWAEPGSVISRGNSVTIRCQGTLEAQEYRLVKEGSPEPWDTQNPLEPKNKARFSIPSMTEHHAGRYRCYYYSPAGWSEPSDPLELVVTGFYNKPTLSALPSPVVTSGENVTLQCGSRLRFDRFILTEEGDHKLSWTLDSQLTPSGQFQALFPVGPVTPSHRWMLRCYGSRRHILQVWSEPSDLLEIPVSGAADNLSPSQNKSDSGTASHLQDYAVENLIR
T1 sequence (Q8N6C8 24-439 limits assumed): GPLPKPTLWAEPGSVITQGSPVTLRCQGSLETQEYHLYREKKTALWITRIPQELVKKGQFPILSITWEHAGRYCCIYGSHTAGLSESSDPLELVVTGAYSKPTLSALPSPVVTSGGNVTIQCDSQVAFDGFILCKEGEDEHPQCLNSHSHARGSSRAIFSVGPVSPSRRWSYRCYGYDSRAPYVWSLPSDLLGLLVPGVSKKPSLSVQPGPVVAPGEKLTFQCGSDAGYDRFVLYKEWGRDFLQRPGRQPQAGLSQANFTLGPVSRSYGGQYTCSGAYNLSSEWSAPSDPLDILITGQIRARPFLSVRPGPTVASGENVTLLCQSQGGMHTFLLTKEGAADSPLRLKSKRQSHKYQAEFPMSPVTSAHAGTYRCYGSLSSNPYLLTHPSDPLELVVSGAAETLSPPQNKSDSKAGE
T6 sequence (Q8N423 22-460 limits assumed): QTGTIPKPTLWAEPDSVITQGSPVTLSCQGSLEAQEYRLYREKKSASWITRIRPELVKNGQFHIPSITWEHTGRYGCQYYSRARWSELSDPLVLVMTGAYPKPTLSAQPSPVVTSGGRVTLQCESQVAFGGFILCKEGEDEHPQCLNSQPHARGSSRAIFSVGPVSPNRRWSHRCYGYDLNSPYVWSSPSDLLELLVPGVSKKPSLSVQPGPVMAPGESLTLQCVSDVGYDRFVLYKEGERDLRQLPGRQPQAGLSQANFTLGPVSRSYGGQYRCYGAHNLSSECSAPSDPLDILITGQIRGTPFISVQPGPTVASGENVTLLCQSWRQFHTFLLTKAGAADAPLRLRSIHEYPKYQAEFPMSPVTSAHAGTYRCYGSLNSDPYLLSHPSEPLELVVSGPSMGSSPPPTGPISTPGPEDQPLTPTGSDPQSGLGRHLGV

B1: 抗LILRB4单克隆抗体MF-I (full antibody, mouse IgG1 heavy chain constant region and mouse Ck light chain constant region) (antibody, V domains shown)
VH: QVQLEQSGAELVKPGASVKLSCKASGYTFTNYWMHWVKQRHGQGLEWIGEINPSNGRTNYNEKFKTKATLTVDKSSSTAYMQLSSLTSEDSAVYYCAKNYRYDDWAMDYWGQGTSVTVSS
VL: DIVLTQSPSSMYASLGERVTITCKASEDINSYLSWFQQKPGKSPKTLIYRANRLVDGVPSRFSGSGSGQDYSLTISSLEYEDMGIYYCLQYDEIPPTFGAGTKLELKA
notes: also called MF-Ⅰ
On to B1, for which the “OD 450nm/630nm” value in the experiment with LILRA3 [1] is 0.064; with LILRA2 [2] it was 0.036; in the experiment with LILRB5 [3], 0.012; with LILRA6 [4], 0.112; with LILRA5 [5], 0.012; in the experiment with LILRB2 [6], 0.213. The “OD 450nm/630nm” value with LILRA1 [7] was determined as 0.111; in the experiment with LILRB4抗原 (人LILRB4蛋白胞外段) [8], 2.3; with LILRB3 [9], 0.18; in the experiment with LILRB1 [10] it was 0.123; in the experiment with LILRA4 [11], 0.014. The binding result with LILRA3 [12], with LILRA2 [13], in the experiment with LILRB5 [14], with LILRA6 [15], with LILRA5 [16] and with LILRB2 [17] was “no binding (tested: 50μg/mL)” in each case. The binding result with LILRA1 [18], in the experiment with LILRB3 [19], in the experiment with LILRB1 [20] and with LILRA4 [21] was “no binding (tested: 50μg/mL)” in each case. Moreover, the “IC50(μg/mL), 抑制THP-1分泌ARG1 (arginase activity in the supernatant, with 0.5 μg/mL ApoE)” value in experiment [22] amounted to 367 µg/mL. Moreover, a half-maximal effect with LILRB4抗原 (人LILRB4蛋白胞外段) [23] (EC50) was put at 0.406 µg/mL. In experiment [24], the IC50 (in general, the midpoint of a concentration-inhibition curve) was found to be 10.5 µg/mL.
